Source: patent US20210301349A1, “COMPOSITIONS AND METHODS FOR TREATING A TUMOR SUPPRESSOR DEFICIENT CANCER” (BETH ISRAEL DEACONESS MEDICAL CENTER, INC., priority 2016, published 2021)

B1: CXCL5: recombinant mouse CXCL5 (BioLegend #573302), chemokine (protein, UniProt P50228 41-132, looked up)
C-X-C motif chemokine 5: APSSVIAATELRCVCLTVTPKINPKLIANLEVIPAGPQCPTVEVIAKLKNQKEVCLDPEAPVIKKIIQKILGSDKKKAKRNALAVERTASVQ
B2: CXCL17: recombinant mouse CXCL17 (BioLegend #585402), chemokine (protein, UniProt Q5UW37 23-119, looked up)
C-X-C motif chemokine 17: SPNPGVARSHGDQHLAPRRWLLEGGQECECKDWFLQAPKRKATAVLGPPRKQCPCDHVKGREKKNRHQKHHRKSQRPSRACQQFLKRCHLASFALPL

What was measured:
[1] = tested on: prostate cancer; conditions: phase III clinical trial in prostate cancer; cited from earlier work
[2] = tested on: Gr1+ cells isolated from the bone marrow of healthy mice; assay: Transwell migration assay with recombinant proteins, Gr1+ cells; type: cell-based, mouse; conditions: increasing concentration of recombinant protein in bottom well
Source text: (§1) Gr1+ cells and monocytes were isolated from the bone marrow (tibias and femurs) of C57BL/6 wild type, 3 months old mice using the MACS Myltenyi Biotec Cell Isolation system according to the manufacturer's instruction. For monocytes isolation the Monocyte Isolation Kit (BM) (Miltenyi 130-100-629) was used, whereas Gr1 positive cells were isolated using the antibody Anti-Gr-1-Biotin, clone RB6-8C5 (Miltenyi 130-101-894). Red blood cells were lysed with the ACK lysis buffer (ThermoFisher Scientific A1049201). Total bone marrow cells and Gr1+ cells were cultured for 4 days. Briefly, 40 ng/ml GM-CSF (PeproTech #315-03) and 40 ng/ml IL-6 (PeproTech #216-16) were added to the control medium RPMI 1640 (ThermoFisher Scientific 11875-093), supplemented with penicillin-streptomycin, 10% FBS, 10 mM HEPES, 20 μM 2-Mercaptoethanol. Either recombinant mouse CXCL5 (BioLegend #573302) or recombinant mouse CXCL17 (BioLegend #585402) was added at the beginning of the experiment (200 nM). For the migration assay 2.5×10^5 MACS sorted cells were resuspended in 100 μL of either RPMI 1640 control medium or organoid complete medium and placed on the upper well of the transwell system (5 μm, Corning #160241). […] The migration of cells was quantified by flow cytometry, 15 seconds acquisition time, using BD LSR II flow cytometer.

[3] = tested on: whole bone marrow (BM) mouse cells and Gr1+ cells; assay: 4 day culture of bone marrow and Gr1+ cells in GM-CSF, IL-6 medium plus recombinant chemokine; type: cell-based; conditions: 4 days culture with IL6 and GM-CSF, recombinant chemokine 200 nM
Source text: Gr1+ cells and monocytes were isolated from the bone marrow (tibias and femurs) of C57BL/6 wild type, 3 months old mice using the MACS Myltenyi Biotec Cell Isolation system according to the manufacturer's instruction. For monocytes isolation the Monocyte Isolation Kit (BM) (Miltenyi 130-100-629) was used, whereas Gr1 positive cells were isolated using the antibody Anti-Gr-1-Biotin, clone RB6-8C5 (Miltenyi 130-101-894). Red blood cells were lysed with the ACK lysis buffer (ThermoFisher Scientific A1049201). Total bone marrow cells and Gr1+ cells were cultured for 4 days. Briefly, 40 ng/ml GM-CSF (PeproTech #315-03) and 40 ng/ml IL-6 (PeproTech #216-16) were added to the control medium RPMI 1640 (ThermoFisher Scientific 11875-093), supplemented with penicillin-streptomycin, 10% FBS, 10 mM HEPES, 20 μM 2-Mercaptoethanol. Either recombinant mouse CXCL5 (BioLegend #573302) or recombinant mouse CXCL17 (BioLegend #585402) was added at the beginning of the experiment (200 nM). For the migration assay 2.5×10^5 MACS sorted cells were resuspended in 100 μL of either RPMI 1640 control medium or organoid complete medium and placed on the upper well of the transwell system (5 μm, Corning #160241). The migration assay with recombinant proteins was performed by adding to the bottom well 600 μL of RMPI1640 control medium supplemented with the indicated amount of either CXCL5 or CXCL17. The migration assay with organoid conditioned medium was performed by adding to the bottom well 600 μL of medium collected over 5 days of culture of prostate organoids with the indicated genotype. The migration of cells was quantified by flow cytometry, 15 seconds acquisition time, using BD LSR II flow cytometer.
For Flow Cytometry, spleen and lymph node single cell suspensions were prepared by mashing the tissue in 2% FBS/PBS. Tumor and control prostate tissue (from anterior lobes) single cell suspension was prepared by mincing the tumor and digestion with Collagenase Type I (Life Technologies #17018029) in 10% DMEM (GIBCO) for 1 hr at 37° C. Cell suspensions were passed through […] cell strainers to obtain single cell suspensions. Blood samples and single cell suspensions were re-suspended in 1-2 ml of ACK red cell lysis buffer (GIBCO) and lysed on ice for 1 minute. Cell suspensions were then washed in 2% FBS/PBS, centrifuged and re-suspended in 0.5-1 ml of 2% FBS/PBS. […] All staining mixtures were analyzed on a BD LSR II flow cytometer (Becton Dickinson). Resulting profiles were further processed and analyzed using the FlowJo 8.7 software.
Microarray analysis and gene set enrichment analysis on mouse tumor tissue were conducted and analyzed as previously described by Palucka, A. K. et al. (Palucka, A. K. et al. Cell 164, 1233-1247 (2016)). […]

[4] = tested on: monocytes isolated from the bone marrow of healthy mice; assay: Transwell migration assay with recombinant proteins, monocytes; type: cell-based, mouse; conditions: increasing concentration of recombinant protein in bottom well
Source text: as §1

Molecule	survival benefit [1]	migration of Gr1+ cells [2]	expression of the Ly6C and Ly6G markers and expression profile of the genes tested [3]	expression of the Ly6C and Ly6G markers and expression profile of the genes tested ([3]; listed as recombinant CXCL5)	migration of monocytes (Ly6G−/Ly6C^hi cells) [4]	expression of the Ly6C and Ly6G markers and expression profile of the genes tested ([3]; listed as recombinant CXCL17)
COc1cccc2c1c(O)c(C(=O)N(C)c1ccc(C(F)(F)F)cc1)c(=O)n2C [Tasquinimod]	failed to show a clear survival benefit	–	–	–	–	–
B1	–	strongly induced the migration	did not observe any significant difference	did not show significant changes	–	–
B2	–	–	did not observe any significant difference	–	chemoattractants	did not show significant changes
